In series [1] the target is T1, human CTGF (Homo sapiens, UniProt P29279, H83D).
T1 construct: purchased Creative Biomart
Put plainly: SPR binding kinetics and affinity, human CTGF. As to conditions: 25° C., 1:1 binding model. On the procedure:
(§1) Surface plasmon resonance (SPR) was used to measure binding kinetics and affinity of the representative lipocalin muteins disclosed herein.
(§2) The binding of exemplary lipocalin muteins to human (Creative Biomart), cynomolgus, rat (R&D Systems) and mouse CTGF (Abbexa) was determined by SPR using a Biacore instrument (Cytiva, formerly GE Healthcare). Some targets were fused to a human IgG1 Fc tag, and captured via the anti-human IgG antibody kit, others were directly immobilized.
(§3) For some measurements, human CTGF with a human IgG1 Fc Tag or rat or murine CTGF without a tag were directly immobilized to a CM5 Chip. The carboxyl groups on the chip were activated using 1-ethyl-3-(3-dimethylaminopropyl)-carbodiimide (EDC) and N-hydroxysuccinimide (NHS). Subsequently, the targets at a concentration of 3-5 μg/mL in 10 mM sodium acetate (pH) 4.5 were applied at a flow rate of 10 μL/min until an immobilization level of 300-1100 resonance units was achieved. Residual non-reacted NHS-esters were blocked by passing a solution of 1 M ethanolamine across the surface. The reference channel was activated/deactivated. For the capture setting, targets with an IgG Fc Tag at 0.25-2.5 μg/mL in HBS-EP+ buffer were captured by the anti-human IgG-Fc antibody at the chip surface for 180 s at a flow rate of 10 μL/min.
(§4) The binding assay was carried out with a contact time of 180 s, a dissociation time of 900-3600 s and a flow rate of 30 μL/min. All measurements were performed at 25° C. […] For the directly immobilized targets, the same regeneration conditions were used. Prior to the protein measurements, three startup cycles were performed for conditioning purposes. Data were evaluated with Biacore Evaluation software. Double referencing was used and the 1:1 binding model was used to fit the raw data.
Background: Surface plasmon resonance follows binding to a sensor surface in real time, without labels.

The target in series [2] is T2, human CTGF (Homo sapiens, UniProt P29279).
T2 construct: purchased Creative Biomart
T2 sequence (P29279 with tags, fused parts or gaps H83D): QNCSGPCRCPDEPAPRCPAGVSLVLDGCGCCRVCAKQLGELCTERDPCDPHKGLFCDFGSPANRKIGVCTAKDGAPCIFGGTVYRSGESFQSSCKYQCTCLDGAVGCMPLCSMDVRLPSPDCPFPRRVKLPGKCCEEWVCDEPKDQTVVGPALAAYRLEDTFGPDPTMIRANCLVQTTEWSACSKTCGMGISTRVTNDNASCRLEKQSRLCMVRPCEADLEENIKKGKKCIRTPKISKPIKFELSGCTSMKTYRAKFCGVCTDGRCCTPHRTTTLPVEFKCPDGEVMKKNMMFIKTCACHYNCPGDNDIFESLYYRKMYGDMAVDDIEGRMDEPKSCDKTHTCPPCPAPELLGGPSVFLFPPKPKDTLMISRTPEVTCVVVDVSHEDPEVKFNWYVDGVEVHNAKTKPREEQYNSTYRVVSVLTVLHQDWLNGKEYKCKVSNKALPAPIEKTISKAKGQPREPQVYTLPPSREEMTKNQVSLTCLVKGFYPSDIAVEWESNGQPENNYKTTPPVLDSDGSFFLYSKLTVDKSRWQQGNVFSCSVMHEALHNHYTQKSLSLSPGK
Put plainly: SPR binding kinetics and affinity, human CTGF. As to conditions: 25° C., 1:1 binding model. As to the method: as §1, §2, §3, §4

The target in series [3] is T3, Murine CTGF (Mus musculus, UniProt P29268).
T3 construct: purchased Abbexa
T3 sequence (P29268 26-348): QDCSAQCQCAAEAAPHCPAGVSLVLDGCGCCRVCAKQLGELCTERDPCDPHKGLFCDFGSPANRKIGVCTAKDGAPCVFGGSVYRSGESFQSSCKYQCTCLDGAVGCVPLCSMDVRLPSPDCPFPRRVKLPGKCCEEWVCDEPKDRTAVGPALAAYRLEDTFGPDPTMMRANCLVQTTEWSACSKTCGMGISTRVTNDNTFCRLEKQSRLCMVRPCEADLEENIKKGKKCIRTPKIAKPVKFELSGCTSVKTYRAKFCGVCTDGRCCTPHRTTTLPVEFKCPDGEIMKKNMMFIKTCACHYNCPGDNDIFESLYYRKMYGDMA
Put plainly: SPR binding kinetics and affinity, murine CTGF. Also on record: key to Murine CTGF kon / Murine CTGF koff / Murine CTGF KD: B binding without determination of kinetics constants. As to conditions: 25° C., 1:1 binding model. On the procedure:
as §1, §2, §3, §4
(§5) The values determined for kon, koff and the resulting equilibrium dissociation constant (KD) for exemplary lipocalin muteins are summarized in Table 4.

A short description of series [4]: Thermal stability assessment by nanoDSC. The following applies: 1 mg/mL in PBS, scan 25-100° C. at 1° C./min; for TM: major transition. The format is physicochemical. On the procedure:
To determine the melting temperatures (Tms) of the lipocalin muteins, which is a general indicator for folding stability, the CTGF specific muteins, at a protein concentration of 1 mg/mL in PBS (Gibco), were scanned (25-100° C.) at 1° C./min using a capillary nanoDSC instrument (CSC 6300, TA Instruments). […] Several unfolding events can contribute to the observed thermogram. In cases with multiple transitions, the one with the major unfolding energy best represents the overall protein fold and is reported. Muteins were produced as described in Example 3. SEQ ID NOs: 3, 7, 9, 25, and 29 were expressed using E. coli, the other muteins were expressed using CHO cells.
The resulting maximum melting temperatures as well as the onset temperature of melting for exemplary lipocalin muteins and fusion proteins are listed in Table 3 below.

In series [5] the target is T4, Rat CTGF (Rattus norvegicus, UniProt Q9R1E9).
T4 construct: purchased R&D Systems
T4 sequence (Q9R1E9 25-347): T3 sequence (P29268 26-348) with H16R, A148V
Put plainly: SPR binding kinetics and affinity, rat CTGF. The following applies: 25° C., 1:1 binding model. As to the method: as §1, §2, §3, §4, §5

Changes are numbered by the printed parent chain.

T1 sequence (P29279 with tags, fused parts or gaps H83D): as the sequence (P29279 with tags, fused parts or gaps H83D) above

B1: SEQ ID NO: 28: optimized CTGF-binding hNGAL lipocalin mutein (protein)
chain: QDSTSDLIPAPPLSKVPLQQNFQDNQFQGKWYVVGLAGNYRLREDKDPSKMGATIYELKEDKSYDVTQVQFDDKKCLYVIETFVPGSQPGEFTLGAIKSYPGLTSQLVRVVSTNYNQHAMVFVKKVWPNLEYFQIVLYGRTKELTSELKENFIRFSKSLGLPENHIVFPVPIDQCIDG
modifications: lipocalin mutein
Turning to B1, in series [1], the “human CTGF kon” value turned out to be 50400 M⁻¹ s⁻¹. Besides, in series [2], the “human CTGF koff” value turned out to be 2.61e-05 s⁻¹. For the same molecule, in series [3], the “Murine CTGF koff” value turned out to be 8.23e-05 s⁻¹ and the “Murine CTGF kon” value turned out to be 60700 M⁻¹ s⁻¹. Further, in series [4], the “ONSET MELTING” value was 55 °C and the TM was 65 °C.

B2: SEQ ID NO: 32: optimized CTGF-binding hNGAL lipocalin mutein (protein)
chain: QDSTSDLIPAPPLSKVPLQQNFQDNQFQGKWYVVGWAGNVKLREDKQPFKMSATIYELKEDKSYDVTEVVFEQKKCHYIIKTFVPGSQPGEFTLSPISSSPGLVSHLVRVVSTNYNQHAMVFFKKVHQNREFFWITLYGRTKELTSELKENFIRFSKSLGLPENHIVFPVPIDQCIDG
modifications: lipocalin mutein
Consider B2, for which the “human CTGF kon” value in series [1] stood at 109000 M⁻¹ s⁻¹. The “human CTGF koff” value in series [2] turned out to be 6.39e-05 s⁻¹. In series [3], the “Murine CTGF koff” value was determined as 0.000264 s⁻¹ and the “Murine CTGF kon” value is 133000 M⁻¹ s⁻¹. Moreover, in series [4], the “ONSET MELTING” value worked out at 62 °C and the TM was determined as 79 °C.

B3: SEQ ID NO: 10: optimized CTGF-binding hNGAL lipocalin mutein (protein)
chain: QDSTSDLIPAPPLSKVPLQQNFQDNQFQGKWYVVGLAGNAILREDKQPAKMFATIYELKEDKSYDVTSVRFEAKSCSYTIKTFVPGSQPGEFTAGNIKSAPGQTSTLVRVVSTNYNQHAMVFWKSVAGTRESFNIALYGRTKELTSELKENFIRFSKSLGLPENHIVFPVPIDQCIDG
modifications: lipocalin mutein
B3: the “human CTGF kon” value in series [1] was 67700 M⁻¹ s⁻¹. In addition, in series [2], the “human CTGF koff” value was determined as 2.23e-06 s⁻¹. For the same molecule, in series [5], the “Rat CTGF koff” value worked out at 4.08e-05 s⁻¹ and the “Rat CTGF kon” value was 88800 M⁻¹ s⁻¹. Moreover, in series [3], the “Murine CTGF KD” value is reported as “B”, the “Murine CTGF koff” value is “B” and the “Murine CTGF kon” value is “B”. In series [4], the “ONSET MELTING” value was found to be 50 °C and the TM amounted to 66 °C.

B4: SEQ ID NO: 19: optimized CTGF-binding hNGAL lipocalin mutein (protein)
chain: B3 chain with W123H, S125A, A127S, G128Q, T129N, N134V, A136T
modifications: lipocalin mutein
As to B4, in series [1], the “human CTGF kon” value is 56600 M⁻¹ s⁻¹. In series [2], the “human CTGF koff” value came to 5.2e-05 s⁻¹. In addition, in series [3], the “Murine CTGF koff” value came to 2.54e-05 s⁻¹ and the “Murine CTGF kon” value was determined as 93200 M⁻¹ s⁻¹. In addition, in series [4], the “ONSET MELTING” value came to 49 °C and the TM worked out at 65 °C.

B5: SEQ ID NO: 16: optimized CTGF-binding hNGAL lipocalin mutein (protein)
chain: B3 chain with E44T, S77V, W123F, S125H, A127S, G128Q, T129N, S132F, N134V, A136T
modifications: lipocalin mutein
For the molecule B5, the “human CTGF kon” value in series [1] came out at 92300 M⁻¹ s⁻¹. In series [2], the “human CTGF koff” value is 7.02e-05 s⁻¹. In series [3], the “Murine CTGF koff” value was 6.34e-05 s⁻¹ and the “Murine CTGF kon” value stood at 161000 M⁻¹ s⁻¹. In series [4], the “ONSET MELTING” value was found to be 59 °C and the TM came to 73 °C.

B6: SEQ ID NO: 21: optimized CTGF-binding hNGAL lipocalin mutein (protein)
chain: B3 chain with W123F, S125A, A127R, T129A
modifications: lipocalin mutein
Take B6: the “human CTGF kon” value in series [1] came to 127000 M⁻¹ s⁻¹. Moreover, in series [2], the “human CTGF koff” value worked out at 6.63e-05 s⁻¹. For the same molecule, in series [3], the “Murine CTGF koff” value is 3.94e-05 s⁻¹ and the “Murine CTGF kon” value turned out to be 228000 M⁻¹ s⁻¹. For the same molecule, in series [4], the “ONSET MELTING” value was determined as 55 °C and the TM amounted to 65 °C.

B7: SEQ ID NO: 26: optimized CTGF-binding hNGAL lipocalin mutein (protein)
chain: QDSTSDLIPAPPLSKVPLQQNFQDNQFQGKWYVVGLAGNYRLREDKDPSKMGATIYELKEDKSYDVTQVQFDDKKCLYVIETFVPGSQPGEFTLGNIKVYPTLESQLVRVVSTNYNQHAMVFFKKVYQNREVFWITLYGRTKELTSELKENFIRFSKSLGLPENHIVFPVPIDQCIDG
modifications: lipocalin mutein
In the case of B7, the “human CTGF kon” value in series [1] stood at 23200 M⁻¹ s⁻¹. The “human CTGF koff” value in series [2] amounted to 3.06e-05 s⁻¹. For the same molecule, in series [3], the “Murine CTGF koff” value amounted to 0.000208 s⁻¹ and the “Murine CTGF kon” value worked out at 35300 M⁻¹ s⁻¹. For the same molecule, in series [4], the “ONSET MELTING” value stood at 62 °C and the TM worked out at 71 °C.

B8: SEQ ID NO: 27: optimized CTGF-binding hNGAL lipocalin mutein (protein)
chain: B1 chain with V123L, W127Y, P128G, N129S, L130E, Q134H, V136T
modifications: lipocalin mutein
B8: the “human CTGF kon” value in series [1] turned out to be 30500 M⁻¹ s⁻¹. Further, the “human CTGF koff” value in series [2] was 2.45e-05 s⁻¹. In addition, in series [3], the “Murine CTGF koff” value stood at 0.000172 s⁻¹ and the “Murine CTGF kon” value worked out at 41400 M⁻¹ s⁻¹. In addition, in series [4], the “ONSET MELTING” value came out at 52 °C and the TM was 64 °C.

B9: SEQ ID NO: 14: optimized CTGF-binding hNGAL lipocalin mutein (protein)
chain: QDSTSDLIPAPPLSKVPLQQNFQDNQFQGKWYVVGLAGNAILREDKYPAKMFATIYELKEDKSYDVTSVRFEAKSCIYTIKTFVPGSQPGEFTRGNIKSAPGQTSTLVRVVSTNYNQHAMVFFKHVSQNREIFVITLYGRTKELTSELKENFIRFSKSLGLPENHIVFPVPIDQCIDG
modifications: lipocalin mutein
Consider B9, for which the “human CTGF kon” value in series [1] was found to be 102000 M⁻¹ s⁻¹. The “human CTGF koff” value in series [2] turned out to be 5.34e-05 s⁻¹. Also, in series [3], the “Murine CTGF koff” value came out at 7.03e-05 s⁻¹ and the “Murine CTGF kon” value turned out to be 190000 M⁻¹ s⁻¹. Also, in series [4], the “ONSET MELTING” value stood at 57 °C and the TM came out at 68 °C.

The values above are taken from patent publication US20240228562A1, “NOVEL LIPOCALIN MUTEINS SPECIFIC FOR CONNECTIVE TISSUE GROWTH FACTOR (CTGF)” (PIERIS PHARMACEUTICALS GMBH, priority 2021, published 2024).
